This passage reports Expression results from US20230226096A1 (Orna Therapeutics, Inc., priority 2020, published 2023).

B1: Felipivirus 127F (nucleic acid, listed as Felipivirus sp.)
DNA: GATGTCGGATGACGGCTGGCCACCGGGGAAAAACGGCAAATGTGCACCACCTCTGCAACCCACGCCGACCACGTTTAACCATGGCGTTAGTAGGAGTGGACCACTGCAGTGGGCTCTGGTGTGCGACAGTCAGTGGTAGAGTAGACAGTCCTGACTGGGCAATGGGACCGCGTTGCGTATCCCTAGGTGGCATCGAGATTCCTCTGCTACCCACCAGCGTGGACTCCTATGGGGGGGGCCCCATAGGCTAGGTCTATACTGCCTGATAGGGTCGCGGCTGGTCGACCACTGACTGTATAACCAGTTGTAACTCACT
B2: HRVC3 QPM (nucleic acid, listed as Rhinovirus sp.)
DNA: TTAAAGCTGGATCATGGTTGTTCCCACCATGATTACCCACGCGGTGCAGTGGTCTTGTATTACGGTACATTTCCATACCAGTTTTATACACCCCACCCCGAAACTCATAGAAGTTTGTACACAATGACCAATAGGTGGTGGCCATCCAGGTCGCTAATGGTCAAGCACTTCTGTTTCCCCGGCACCCTTGTATACGCTTCACCCGAGGCGAAAAATGAGGTTGTCGTTATCCGCAAAGTGCCTACGAAAAGCCTAGTAACACTTTGAAAACCCATGGTTGGTCGCTCAGCTGTTTACCCAACAGTAGACCTGGCAGATGAGGCTAGACATTCCCCACCAGCGATGGTGGTCTAGCCTGCGTGGCTGCCTGCACACCCTGCCGGGTGTGAAGCCAGAAAGTGGACAAGGTGTGAAGAGCCTATTGTGCTCACTTTGAGTCCTCCGGCCCCTGAATGTGGCTAACCCTAACCCCGTAGCTGTTGCATGTAACCCAACATGTATGCAGTCGTAATGGGCAACTATGGGATGGGACCAACTACTTTGGGTGTCCGTGTTTCCTGTTTTACTTTTTCATTGCTTATGGTGACAATTGTATCTGATACACTTGTTACC
B3: HRVB27 (nucleic acid, listed as Rhinovirus sp.)
DNA: TTAAAACAGCGGATGGGTATCCCACCATCCGACCCACAGGGTGTAGTGCTCTGGTATTTTGTACCTTTGCACGCCTGTTTCCCCATTGTACCCCTCCTTAAATTTCCTCCCCAAGTAACGTTAGAAGTTTAAGGAAACAAATGTACAATAGGAAGCATCACATCCAGTGGTGTTATGTACAAGCACTTCTGTTTCCCCGGAGCGAGGTATAAGTGGTACCCACCGCCGAAAGCCTTTAACCGTTATCCGCCAATCAACTACGTAATGGCTAGTATTACCATGTTTGTGACTTGGTGTTCGATCAGGTGGTTCCCCCCACTAGTTTGGTCGATGAGGCTAGGAACTCCCCACGGGTGACCGTGTCCTAGCCTGCGTGGCGGCCAACCCAGCTTTTGCTGGGACGCCTTTTTACAGACATGGTGTGAAGACCTGCATGTGCTTGATTGTGAGTCCTCCGGCCCCTGAATGCGGCTAACCTTAACCCCGGAGCCTTGCAACATAATCCAATGTTGTTGAGGTCGTAATGAGTAATTCTGGGATGGGACCGACTACTTTGGGTGTCCGTGTTTCCTTTTATTCTTTATATTGTCTTATGGTCACAGCATATATAGCATATATACTGTGATC
B4: Boosepivirus B (nucleic acid)
DNA: TTTTCTCCCCTCCCCCTCCAACTACCTTTTCCCCCTCTTGTAACGCTAGAAGTTTGTGCAAACCGCCTGTAGGGTACTGCAATCCAGCAGTGCATAGGCTAAGCTTTTCTTGTTACCCCACCCCACATTATACTGAGGAGGATTGTGAAATTGTGTTAGTATGGGTTAGTAGCGGTGACCCGGGTAACCCCAACCCAGAAACTCACGGATGAGATGAACAGGACCCCACATGGTAACGTGTGTGTTCGTCTGCCCCGCAAGGTGAGGCCGTGAGAGCTTTGCACGCGAAAACCTTGAAAACCCAAAAGTACCTTGAGCTCTTCGCTATTTTGTGTTTCCTCCAGGACCCTGAATGCGGCTAAACCTAACCCGCGATCCGCACGTAGCAACCCAGCTAGAGTGTGGTCGTAATGCGCAAGTTGCGGGCGGTACCGACTACTTTGGTGTTCCTGTGTTTCCTTTATTTTATTTTGAATTTTTATGGTGACAACAGCTAGAAAATAAGAGTGAAC
modifications: Boosepivirus B
B5: Boosepivirus A (nucleic acid)
DNA: TTGAAAGACCTCGGCATATATCGTTGTCACAACGGTATATGTCGAGATCTTTCTCCCCACCCCCTCCAATTCCCTTTTCCCCCTCTTGCAACTTAGAAGTTTGTACACACAGGGCAATAGGATACGTGATCCAGCCAGGACACGTGAGCTCAAGCACTTCTGTTTCCCCGTCCCCTTCACGTACTACGGGAATGTTAGTAATTTGTGTGCACTTTAGTAAGGTTGATCCGGGATTAACCCCAAATCCCAGAAACTGGTGATGAGCGTTACCACCCCCGCCGGGCGACCGGAAGGTTTCGCTGCGTTGGCACCAGGGCTTCGGCACCAGAAAAAGGTAAAGCAAATGAAGGCGCTACTGTGCTACGAGAAGTTTCCTCCAGGCCCCTGAATGCGGCTAATCCTAACCAGTGATCCACCGGTGCAAAACCATGTACTAGGTGGTCGTAACGCGCAAGTCGCTGGCGGAACCGACTACTTTGGGTGTCCTGTGTTTCCATATTTTATTTTATTCAATTTTATGGTGACAAGAGTAAAGAGATACAGATTTGCAGCC
modifications: Boosepivirus A
B6: Parabovirus A3 (nucleic acid, listed as Parabovirus sp.)
DNA: ACCGTTACGCACCACTCAGTTGGTGTTTGGTGGCACCAATGATGGAACAAAAGGCTACACCACTTGGGCTACGGCCCGCGCCACCTTGTGGCGCAAAGACATTAGAAGAATAGCATACCGCCCACTAGGGCCCTGCAGCCAGCAGGGTAACGGGCAAGCACTTCTGTCTCCCCGGTAGAACGGTATAGGCTGTACCCACGGCCGAAAACTGAACTATCGTTACCCGACTCCGTACTTCGCAAAGCTTAGTAGGAAACTGGAAAGTTCGAGTTATTGACCCGGAGTGTTCCCCCCACTCCAGAAACGCGTGATGAGGGTTGCCACCCCGACCATGGCGACATGGTGGGCATCCCTGCGCTGGCACGCGGCCTCTAAGAGGATAACTCGCTCCTACTGGTAACCGAAGAGCCCCGTGAGCTACGGTTTATTCCTCCGCCTCCCTGAATGCGGCTAATCCTAACCCATGAGCAGTTGCCATAGATCCATATGGTGGACTGTCGTAACGCGTAAGTTGTGGGCGGAACCGACTACTTTGGGATGGCGTGTTTCCTTGTTTTCTCCATTTGTTGTTGTATGGTGACAAGTTATAGATCTCGATCTATAGCGTTTCTTGAGAGATTTCCAAACATTTATTCAAGTCGTACAATTCTTGTGTTTAAGCAGTACAGTGTAAGG
B7: HRVA73 (nucleic acid, listed as Rhinovirus sp.)
DNA: TTAAAACTGGGTTTGGGTTGTTCCCACCCAAACCACCCACGCGGTGTTGTACACTGTTATTCCGGTAACCTTGTACGCCAGTTTTATATCCCTTCCCCCCCTTGTAACTTAGAAGACATGCGAATCGACCAATAGCAGGCAATCAACCAGATTGTCACCGGTCAAGCACTTCTGTTTCCCCGGCTCTCGTTGATATGCTCCAACAGGGCAAAAACAATTGGAGTCGTTACCCGCAAGATGCCTACGCAAAACCTAGTAGCATCTTCGAAGATTTTTGGTTGGTCGCTCAGTTGCTACCCCAGCAATAGACCTGGCAGATGAGGCTAGAAATACCCCACTGGTGACAGTGTTCTAGCCTGCGTGGCTGCCTGCACACCCACACGGGTGTGAAGCCAAAGATTGGACAAGGTGTGAAGAGTCACGTGTGCTCATCTTGAGTCCTCCGGCCCCTGAATGCGGCTAACCTTAACCCCGTAGCCATTGCTCGCAATCCAGCGAGTATATGGTCGTAATGAGTAATTACGGGATGGGACCGACTACTTTGGGTGTCCGTGTTTCACTTTTTACTTATCAATTTGCTTATGGTGACAATATATATAGATATATATTGACACC
B8: Phacovirus Pf-CHK1 (nucleic acid)
DNA: GTGTGTCATTTCTCCCCTCCCCCTCCCAAACCTTTTCCCCCTCTAATCGGATTGATTAACCCGGTTAAAGATGATTAATGGTTTGTGAGTTGATATGATGGCCCGGCATTGAATCCGGGAATTCTTAAGTAATGGAATTGCATCCAATATGAAAGTGAGTGTGGCAAGCTCACAAGTAGTACTTGGCTCTGCCCATTATTTGAGGACCAACTCTTCTTGACTACAATGTGTTTAAAGTAAACTGGACCACATTGTGTATCCAGACAACTCCATTTGATAATGTACGCTGGAAACGTTTTCAGTGCATAGGGTCCTAAAGTGGTGCTGAAATATTGCAAGCTCAATGGGATACTGAACGCTGAAAACCGCCGCTGTTATCATATGGGCCCCTAGTGGGTAAATGTTGGCTTTAGGCATATACTGCTTGGGAATGCAGTACTGGTTGTAGACAGGGTGATAGCCTACCGGCTGGCGTAGTTGAGTTGGTATAGCCAGTTGATTGCCAT
B9: EV L (nucleic acid)
DNA: ACATGGGCCAGCCCACCACACCCACTGGGTGTAGTAGTCTGGTTCTATGGAACCTTTCTACGCCTCTTTTGCTTCCCTCCCCCATTTCTCCTTCGATTGCTCCACCTGTGATCTTTGCAACTTAGAAGAAATAATGAACCCGCACAATAGCGGGCGCTGAGCCACAGCGTCAATGTGCAAGCACTTCTGTTTCCCCGGAATGGGCCCATAGGCTGTACCCACGGCTGAAAGGGACCGGCCCGTTACCCGCCTTGGTACTGCGAGAATGTTAGTAACTCCCTCGATAGCTTTAGGCGTTACGCTCAGCCCTTTGAGCCCGAAGGGTAGTTCGGGTCGATGAGGCTCGTCATTCCCCACTGGCGACAGTGTGACTTGCCTGCGTTGGCGGCCCGGGGTGGGGGGCAACCCCCATCCACGCCTACTGAAGGACAGGGTGTGAAGGCGCTATTGCGCTACTAAGGAGTCCTCCGGCCCCTGAATGCGGCTAACCCGAACCCCGAGCCCACGGTGGTAAACCCGCCACAAGTGGGTCGTAATGAGTAATTTGGGGCAGGGACCGACTACTTTGGGTGTCCGTGTTTCCTGTTTTTCCATACGATGGCTGCTTATGGTGACAACCATAAGCAATTGGATTGGCCATCCGGTGTTCATATTGCGAAT
modifications: Enterovirus L

In the data set the test system is HEK293 cells. The class given is cell-based, human. The note with it: luminescence from secreted Gluc in supernatant 24 hours after transfection of HEK293 cells; circular RNA encoding Gluc with the named IRES (UTR truncated to 675 nt).
B1 displayed an Expression of 8.92E+06.
Molecule B2 had an Expression of 1.64E+07.
The molecule B3 returned an Expression of 2.04E+08.
To B4 belongs 1.17E+08; to B5, 7.07E+07.
With B6, the Expression turned out to be 2.44E+08.
With B7 the figure was 1.08E+08.
As for B8, the Expression was found to be 5.87E+06.
B9 returned an Expression of 6.49E+07.
